Patent US20120034160A1 (AbbVie / Abbott, published 2012)

T1: Recombinant Human IL-17 (human, UniProt Q16552 20-155, limits assumed)
T1 construct: Bought reagent
T1 sequence (looked up): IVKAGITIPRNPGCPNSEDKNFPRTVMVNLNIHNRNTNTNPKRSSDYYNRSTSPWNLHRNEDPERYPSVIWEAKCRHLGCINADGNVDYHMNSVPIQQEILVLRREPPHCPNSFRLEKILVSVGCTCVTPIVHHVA

T2: Recombinant Human IL-17 (human, UniProt Q16552 20-155, limits assumed)
T2 construct: bought reagent
T2 sequence (looked up): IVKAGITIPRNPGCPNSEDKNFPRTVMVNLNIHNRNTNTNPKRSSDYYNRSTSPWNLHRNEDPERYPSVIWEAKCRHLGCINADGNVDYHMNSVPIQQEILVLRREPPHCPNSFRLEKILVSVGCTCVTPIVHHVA


Key:
Recombinant Human IL-17 [1] = molecular target: T1, Recombinant Human IL-17; assay: Biacore SPR; later run, parent printed with DVD1639-DVD1648; kon 4.70E+06, koff 8.50E-05
Experimental: (§1) The BIACORE assay (Biacore, Inc, Piscataway, N.J.) determines the affinity of antibodies or DVD-Ig with kinetic measurements of on-rate and off-rate constants. Binding of antibodies or DVD-Ig to a target antigen (for example, a purified recombinant target antigen) was determined by surface plasmon resonance-based measurements with a Biacore® 1000 or 3000 instrument (Biacore® AB, Uppsala, Sweden) using running HBS-EP (10 mM HEPES [pH 7.4], 150 mM NaCl, 3 mM EDTA, and 0.005% surfactant P20) at 25° C. All chemicals were obtained from Biacore® AB (Uppsala, Sweden) or otherwise from a different source as described in the text. […] The association and dissociation rate constants, kₒₙ (M⁻¹s⁻¹) and koff (s⁻¹) were determined under a continuous flow rate of 25 μl/min. […] The equilibrium dissociation constant (M) of the reaction between antibodies or DVD-Igs and the target antigen was then calculated from the kinetic rate constants by the following formula: KD=koff/kₒₙ. Binding was recorded as a function of time and kinetic rate constants are calculated.

Recombinant Human IL-17 [2] = molecular target: T1, Recombinant Human IL-17; assay: cell-based or functional assay
Recombinant Human IL-17 [3] = molecular target: T1, Recombinant Human IL-17; assay: Biacore SPR
Experimental: (§2) The BIACORE assay (Biacore, Inc, Piscataway, N.J.) determines the affinity of antibodies or DVD-Ig with kinetic measurements of on-rate and off-rate constants. Binding of antibodies or DVD-Ig to a target antigen (for example, a purified recombinant target antigen) was determined by surface plasmon resonance-based measurements with a Biacore® 1000 or 3000 instrument (Biacore® AB, Uppsala, Sweden) using running HBS-EP (10 mM HEPES [pH 7.4], 150 mM NaCl, 3 mM EDTA, and 0.005% surfactant P20) at 25° C. All chemicals were obtained from Biacore® AB (Uppsala, Sweden) or otherwise from a different source as described in the text. For example, approximately 5000 RU of goat anti-mouse IgG, (Fcγ), fragment specific polyclonal antibody (Pierce Biotechnology Inc, Rockford, Ill.) diluted in 10 mM sodium acetate (pH 4.5) was directly immobilized across a CM5 research grade biosensor chip using a standard amine coupling kit according to manufacturer's instructions and procedures at 25 μg/ml. Unreacted moieties on the biosensor surface were blocked with ethanolamine. Modified carboxymethyl dextran surface in flowcell 2 and 4 was used as a reaction surface. Unmodified carboxymethyl dextran without goat anti-mouse IgG in flow cell 1 and 3 was used as the reference surface. For kinetic analysis, rate equations derived from the 1:1 Langmuir binding model were fitted simultaneously to association and dissociation phases of all eight injections (using global fit analysis) with the use of Biaevaluation 4.0.1 software. Purified antibodies or DVD-Ig were diluted in HEPES-buffered saline for capture across goat anti-mouse IgG specific reaction surfaces. Antibodies or DVD-Ig to be captured as a ligand (25 μg/ml) were injected over reaction matrices at a flow rate of 5 μl/min. The association and dissociation rate constants, kₒₙ (M⁻¹s⁻¹) and koff (s⁻¹) were determined under a continuous flow rate of 25 μl/min. Rate constants were derived by making kinetic binding measurements at different antigen concentrations ranging from 10−200 nM. The equilibrium dissociation constant (M) of the reaction between antibodies or DVD-Igs and the target antigen was then calculated from the kinetic rate constants by the following formula: KD=koff/kₒₙ. Binding was recorded as a function of time and kinetic rate constants are calculated.

Recombinant Human IL-17 [4] = molecular target: T2, Recombinant Human IL-17; assay: Biacore SPR; first run, parent printed with DVD1282-DVD1291; kon 2.80E+03, koff 2.40E-05
Experimental: as §1

Recombinant Human IL-17 [5] = molecular target: T2, Recombinant Human IL-17; assay: Biacore SPR
Experimental: as §2

Kd (Recombinant Human IL-17 [1]) [pM]	IL-17 Neutralization Assay EC50 (Recombinant Human IL-17 [2]) [pM]	koff (Recombinant Human IL-17 [3]) [s⁻¹]	kon (Recombinant Human IL-17 [3]) [M⁻¹ s⁻¹]	Kd (Recombinant Human IL-17 [4]) [pM]	Kd (Recombinant Human IL-17 [5]) [pM]	Binder
18	3.2	8.5e-05	4.7e+06			AB275 (antibody, human IgG1, kappa, V domains shown, Parent antibody) VH: EVQLVQSGAEVKKPGESVKISCKASGGSFRSYGISWVRQAPGQGLEWMGGITHFFGITDYAQKFQGRVTITADESTTTAYMELSGLTSDDTAVYYCAREPNDFWNGYYDTHDFDSWGQGTTVTVSS VL: EIVLTQSPDFQSVTPKEKVTITCRASQNIGSELHWYQQKPDQSPKLLIKYASHSISGVPSRFSGSGSGTDFTLTINGLEAEDAATYYCHQSDTLPHTFGQGTKVDIKR
				8800	19	AB275 (antibody, human IgG1, kappa, V domains shown, constants by vectors: V1 wt hIgG1, V2 kappa) VH: EVQLVQSGAEVKKPGESVKISCKASGGSFRSYGISWVRQAPGQGLEWMGGITHFFGITDYAQKFQGRVTITADESTTTAYMELSGLTSDDTAVYYCAREPNDFWNGYYDTHDFDSWGQGTTVTVSS VL: EIVLTQSPDFQSVTPKEKVTITCRASQNIGSELHWYQQKPDQSPKLLIKYASHSISGVPSRFSGSGSGTDFTLTINGLEAEDAATYYCHQSDTLPHTFGQGTKVDIKR
